According to US20240052034A1:

Biological target: PD-1 on PD-1 reporter Jurkat cells (UniProt Q15116)
Assay: cell-based or functional assay

Sequence of PD-1 on PD-1 reporter Jurkat cells (Q15116 25-288 limits assumed): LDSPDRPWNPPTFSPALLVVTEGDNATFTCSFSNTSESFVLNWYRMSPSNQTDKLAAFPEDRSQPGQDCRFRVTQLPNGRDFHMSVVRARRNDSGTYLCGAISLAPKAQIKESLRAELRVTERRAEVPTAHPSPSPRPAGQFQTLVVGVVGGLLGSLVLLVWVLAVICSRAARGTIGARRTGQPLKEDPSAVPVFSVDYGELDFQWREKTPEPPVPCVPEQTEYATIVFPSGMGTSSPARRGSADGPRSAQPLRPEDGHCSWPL

With LY3462817 (antibody) the EC50 of SHP-2 recruitment, PD-1 reporter Jurkat cells, Ig-tethered test article on anti-human IgG coated plates was 5.69 nM.
